Measured values taken from the MegaScale stability set (Tsuboyama et al. 2023).

B1: EHEE_rd2_0601 (parent)
chain: TYTYKLTDEEASRRAEDEWRNRGYDVRVRNNNGTWEVEVR

Variants of: B1
Assay: folding stability dG (cDNA display proteolysis); higher = more stable
Conditions: PBS, room temperature

Row | Variant | folding stability dG [kcal/mol]
1 | TYTYKLTDEEASRRAEDEWYNRGYDVRVRNNNGTWEVEVR | 0.246
2 | TYTYKLTDEEASRRAEDEWINRGYDVRVRNNNGTWEVEVR | 0.853
3 | TYTYKLTDEEASRRAEDEWVNRGYDVRVRNNNGTWEVEVR | 0.659
4 | TYTYKLTDEEASRRAEDEWGNRGYDVRVRNNNGTWEVEVR | 0.028
5 | TYTYKLTDEEASRRAEDEWSNRGYDVRVRNNNGTWEVEVR | 0.589
6 | TYTYKLTDEEASRRAEDEWKNRGYDVRVRNNNGTWEVEVR | 1.32
7 | TYTYKLTDEEASRRAEDEWENRGYDVRVRNNNGTWEVEVR | -0.108
8 | TYTYKLTDEEASRRAEDEWQNRGYDVRVRNNNGTWEVEVR | 0.446
9 | TYTYKLTDEEASRRAEDEWLNRGYDVRVRNNNGTWEVEVR | 0.904
10 | TYTYKLTDEEASRRAEDEWMNRGYDVRVRNNNGTWEVEVR | 0.619
11 | TYTYKLTDEEASRRAEDEWANRGYDVRVRNNNGTWEVEVR | 0.541
12 | TYTYKLTDEEASRRAEDEWHNRGYDVRVRNNNGTWEVEVR | 0.444
13 | TYTYKLTDEEASRRAEDEWWNRGYDVRVRNNNGTWEVEVR | -0.078
14 | TYTYKLTDEEASRRAEDEWNNRGYDVRVRNNNGTWEVEVR | 0.373
15 | TYTYKLTDEEASRRAEDEWTNRGYDVRVRNNNGTWEVEVR | 0.945
16 | TYTYKLTDEEASRRAEDEWFNRGYDVRVRNNNGTWEVEVR | 0.22
17 | TYTYKLTDEEASRRAEDEWRNWGYDVRVRNNNGTWEVEVR | 0.762
18 | TYTYKLTDEEASRRAEDEWRNNGYDVRVRNNNGTWEVEVR | 0.518
19 | TYTYKLTDEEASRRAEDEWRNAGYDVRVRNNNGTWEVEVR | 1.22
20 | TYTYKLTDEEASRRAEDEWRNSGYDVRVRNNNGTWEVEVR | 0.439
21 | TYTYKLTDEEASRRAEDEWRNDGYDVRVRNNNGTWEVEVR | -0.181
22 | TYTYKLTDEEASRRAEDEWRNEGYDVRVRNNNGTWEVEVR | 0.251
23 | TYTYKLTDEEASRRAEDEWRNLGYDVRVRNNNGTWEVEVR | 1.46
24 | TYTYKLTDEEASRRAEDEWRNKGYDVRVRNNNGTWEVEVR | 1.45
25 | TYTYKLTDEEASRRAEDEWRNQGYDVRVRNNNGTWEVEVR | 0.939

Row | Variant | folding stability dG [kcal/mol]
26 | TYTYKLTDEEASRRAEDEWRNGGYDVRVRNNNGTWEVEVR | 0.192
27 | TYTYKLTDEEASRRAEDEWRNFGYDVRVRNNNGTWEVEVR | 0.44
28 | TYTYKLTDEEASRRAEDEWRNCGYDVRVRNNNGTWEVEVR | 1.03
29 | TYTYKLTDEEASRRAEDEWRNHGYDVRVRNNNGTWEVEVR | 0.666
30 | TYTYKLTDEEASRRAEDEWRNYGYDVRVRNNNGTWEVEVR | 0.488
31 | TYTYKLTDEEASRRAEDEWRNVGYDVRVRNNNGTWEVEVR | -0.052
32 | TYTYKLTDEEASRRAEDEWRNIGYDVRVRNNNGTWEVEVR | 0.421
33 | TYTYKLTDEEASRRAEDEWRNTGYDVRVRNNNGTWEVEVR | -0.242
34 | TYTYKLTDEEASRRAEDEWRNMGYDVRVRNNNGTWEVEVR | 1.29
35 | TYTYKLTDEEASRRAEDEARNRGYDVRVRNNNGTWEVEVR | 0.133
36 | TYTYKLTDEEASRRAEDEIRNRGYDVRVRNNNGTWEVEVR | -0.516
37 | TYTYKLTDEEASRRAEDEMRNRGYDVRVRNNNGTWEVEVR | 0.446
38 | TYTYKLTDEEASRRAEDEFRNRGYDVRVRNNNGTWEVEVR | 1.04
39 | TYTYKLTDEEASRRAEDEHRNRGYDVRVRNNNGTWEVEVR | -0.397
40 | TYTYKLTDEEASRRAEDENRNRGYDVRVRNNNGTWEVEVR | -0.826
41 | TYTYKLTDEEASRRAEDEERNRGYDVRVRNNNGTWEVEVR | -0.502
42 | TYTYKLTDEEASRRAEDEYRNRGYDVRVRNNNGTWEVEVR | 0.78
43 | TYTYKLTDEEASRRAEDELRNRGYDVRVRNNNGTWEVEVR | 0.884
44 | TYTYKLTDEEASRRAEDEWRNRCYDVRVRNNNGTWEVEVR | 1.14
45 | TYTYKLTDEEASRRAEDEWRNRQYDVRVRNNNGTWEVEVR | -0.624
46 | TYTYKLTDEEASRRAEDEWRNRYYDVRVRNNNGTWEVEVR | -0.588
47 | TYTYKLTDEEASRRAEDEWRNRFYDVRVRNNNGTWEVEVR | -0.542
48 | TYTYKLTDEEASRRAEDEWRNRKYDVRVRNNNGTWEVEVR | -0.509
49 | TYTYKLTDEEASRRAEDEWRNRHYDVRVRNNNGTWEVEVR | -0.048
50 | TYTYKLTDEEASRRAEDEWRNRNYDVRVRNNNGTWEVEVR | -0.169

Row | Variant | folding stability dG [kcal/mol]
51 | TYTYKLTDEEASRRAEDEWRNRWYDVRVRNNNGTWEVEVR | -0.693
52 | TYTYKLTDEEASRRAEDEWRNRMYDVRVRNNNGTWEVEVR | -0.97
53 | TYTYKLTDEEASRRAEDEWRVRGYDVRVRNNNGTWEVEVR | 1.1
54 | TYTYKLTDEEASRRAEDEWRKRGYDVRVRNNNGTWEVEVR | 1.97
55 | TYTYKLTDEEASRRAEDEWRFRGYDVRVRNNNGTWEVEVR | 1.04
56 | TYTYKLTDEEASRRAEDEWRARGYDVRVRNNNGTWEVEVR | 1.82
57 | TYTYKLTDEEASRRAEDEWRLRGYDVRVRNNNGTWEVEVR | 1.65
58 | TYTYKLTDEEASRRAEDEWRMRGYDVRVRNNNGTWEVEVR | 1.58
59 | TYTYKLTDEEASRRAEDEWRRRGYDVRVRNNNGTWEVEVR | 1.96
60 | TYTYKLTDEEASRRAEDEWRQRGYDVRVRNNNGTWEVEVR | 1.65
61 | TYTYKLTDEEASRRAEDEWRIRGYDVRVRNNNGTWEVEVR | 1.22
62 | TYTYKLTDEEASRRAEDEWRHRGYDVRVRNNNGTWEVEVR | 1.24
63 | TYTYKLTDEEASRRAEDEWRWRGYDVRVRNNNGTWEVEVR | 0.672
64 | TYTYKLTDEEASRRAEDEWRYRGYDVRVRNNNGTWEVEVR | 0.831
65 | TYTYKLTDEEASRRAEDEWRTRGYDVRVRNNNGTWEVEVR | 1.31
66 | TYTYKLTDEEASRRAEDEWRERGYDVRVRNNNGTWEVEVR | 1.34
67 | TYTYKLTDEEASRRAEDEWRSRGYDVRVRNNNGTWEVEVR | 1.82
68 | TYTYKLTDEEASRRAEDEWRDRGYDVRVRNNNGTWEVEVR | 1.16
69 | TYTYKLTDEEASRRAEDEWRGRGYDVRVRNNNGTWEVEVR | 1.42
70 | TYTYKLTDEEASRRAPDEWRNRGYDVRVRNNNGTWEVEVR | -0.034
71 | TYTYKLTDEEASRRAWDEWRNRGYDVRVRNNNGTWEVEVR | 1.3
72 | TYTYKLTDEEASRRARDEWRNRGYDVRVRNNNGTWEVEVR | 1.19
73 | TYTYKLTDEEASRRAYDEWRNRGYDVRVRNNNGTWEVEVR | 1.86
74 | TYTYKLTDEEASRRAVDEWRNRGYDVRVRNNNGTWEVEVR | 2
75 | TYTYKLTDEEASRRAQDEWRNRGYDVRVRNNNGTWEVEVR | 1.46

Row | Variant | folding stability dG [kcal/mol]
76 | TYTYKLTDEEASRRATDEWRNRGYDVRVRNNNGTWEVEVR | 1.29
77 | TYTYKLTDEEASRRASDEWRNRGYDVRVRNNNGTWEVEVR | 1.47
78 | TYTYKLTDEEASRRAEDQWRNRGYDVRVRNNNGTWEVEVR | 1.36
79 | TYTYKLTDEEASRRAEDFWRNRGYDVRVRNNNGTWEVEVR | 2.71
80 | TYTYKLTDEEASRRAEDWWRNRGYDVRVRNNNGTWEVEVR | 2.44
81 | TYTYKLTDEEASRRAEDSWRNRGYDVRVRNNNGTWEVEVR | 1.25
82 | TYTYKLTDEEASRRAEDTWRNRGYDVRVRNNNGTWEVEVR | 1.35
83 | TYTYKLTDEEASRRAEDLWRNRGYDVRVRNNNGTWEVEVR | 2.04
84 | TYTYKLTDEEASRRAEDAWRNRGYDVRVRNNNGTWEVEVR | 1.45
85 | TYTYKLTDEEASRRAEDMWRNRGYDVRVRNNNGTWEVEVR | 2.03
86 | TYTYKLTDEEASRRAEDGWRNRGYDVRVRNNNGTWEVEVR | 0.757
87 | TYTYKLTDEEASRRAEDCWRNRGYDVRVRNNNGTWEVEVR | 2.41
88 | TYTYKLTDEEASRRAEDKWRNRGYDVRVRNNNGTWEVEVR | 1.43
89 | TYTYKLTDEEASRRAEDRWRNRGYDVRVRNNNGTWEVEVR | 1.31
90 | TYTYKLTDEEASRRAEDHWRNRGYDVRVRNNNGTWEVEVR | 1.83
91 | TYTYKLTDEEASRRAEDYWRNRGYDVRVRNNNGTWEVEVR | 3.02
92 | TYTYKLTDEEASRRAEDVWRNRGYDVRVRNNNGTWEVEVR | 1.56
93 | TYTYKLTDEEASRRAEDNWRNRGYDVRVRNNNGTWEVEVR | 1.03
94 | TYTYKLTDEEASRRAEDIWRNRGYDVRVRNNNGTWEVEVR | 1.74
95 | TYTYKLTDEEASRRAEDDWRNRGYDVRVRNNNGTWEVEVR | 1.21
96 | TYTYKLTDEEASRRAEFEWRNRGYDVRVRNNNGTWEVEVR | 1.86
97 | TYTYKLTDEEASRRAEYEWRNRGYDVRVRNNNGTWEVEVR | 1.77
98 | TYTYKLTDEEASRRAEQEWRNRGYDVRVRNNNGTWEVEVR | 2.08
99 | TYTYKLTDEEASRRAEGEWRNRGYDVRVRNNNGTWEVEVR | 1.24
100 | TYTYKLTDEEASRRAEIEWRNRGYDVRVRNNNGTWEVEVR | 2.17

Row | Variant | folding stability dG [kcal/mol]
101 | TYTYKLTDEEASRRAELEWRNRGYDVRVRNNNGTWEVEVR | 2.06
102 | TYTYKLTDEEASRRAEKEWRNRGYDVRVRNNNGTWEVEVR | 2.02
103 | TYTYKLTDEEASRRAEHEWRNRGYDVRVRNNNGTWEVEVR | 1.68
104 | TYTYKLTDEEASRRAEREWRNRGYDVRVRNNNGTWEVEVR | 2.1
105 | TYTYKLTDEEASRRAESEWRNRGYDVRVRNNNGTWEVEVR | 1.88
106 | TYTYKLTDEEASRRAEWEWRNRGYDVRVRNNNGTWEVEVR | 1.92
107 | TYTYKLTDEEASRRAEMEWRNRGYDVRVRNNNGTWEVEVR | 2.11
108 | TYTYKLTDEEASRRAEAEWRNRGYDVRVRNNNGTWEVEVR | 2.17
109 | TYTYKLTDEEASRRAETEWRNRGYDVRVRNNNGTWEVEVR | 1.99
110 | TYTYKLTDEEASRRAEVEWRNRGYDVRVRNNNGTWEVEVR | 2.08
111 | TYTYKLTDEEASRRAENEWRNRGYDVRVRNNNGTWEVEVR | 1.78
112 | TYTYKLTDEEASRRAEEEWRNRGYDVRVRNNNGTWEVEVR | 1.99
113 | TYTYKLTDEEASRRAEDEWRNRGMDVRVRNNNGTWEVEVR | 0.281
114 | TYTYKLTDEEASRRAEDEWRNRGRDVRVRNNNGTWEVEVR | -0.49
115 | TYTYKLTDEEASRRAEDEWRNRGNDVRVRNNNGTWEVEVR | -0.731
116 | TYTYKLTDEEASRRAEDEWRNRGLDVRVRNNNGTWEVEVR | 0.28
117 | TYTYKLTDEEASRRAEDEWRNRGQDVRVRNNNGTWEVEVR | -0.84
118 | TYTYKLTDEEASRRAEDEWRNRGADVRVRNNNGTWEVEVR | 0.049
119 | TYTYKLTDEEASRRAEDEWRNRGHDVRVRNNNGTWEVEVR | 0.447
120 | TYTYKLTDEEASRRAEDEWRNRGTDVRVRNNNGTWEVEVR | -0.625
121 | TYTYKLTDEEASRRAEDEWRNRGKDVRVRNNNGTWEVEVR | -0.577
122 | TYTYKLTDEEASRRAEDEWRNRGIDVRVRNNNGTWEVEVR | -0.012
123 | TYTYKLTDEEASRRAEDEWRNRGCDVRVRNNNGTWEVEVR | 1.21
124 | TYTYKLTDEEASRRAEDEWRNRGVDVRVRNNNGTWEVEVR | 0.003
125 | TYTYKLTDEEASRRAEDEWRNRGFDVRVRNNNGTWEVEVR | 1.51
